Test results published in paper PMC6754605 (Proceedings of the National Academy of Sciences of the …, 2019).

Target: the molecule itself
Experiment: SEC

Protein | binding result
mouse SAA3 F24S/M25S double mutant (natural protein, UniProt P04918 19-122, looked up) QRWVQSSKEAGQGSRDMWRAYSDMKKANWKNSDKYFHARGNYDAARRGPGGAWAAKVISDAREAVQKFTGHGAEDSRADQFANEWGRSGKDPNHFRPAGLPKRY | binds
mouse SAA3 W71S/V75S double mutant (natural protein, UniProt P04918 19-122, looked up) QRWVQFMKEAGQGSRDMWRAYSDMKKANWKNSDKYFHARGNYDAARRGPGGASAAKSISDAREAVQKFTGHGAEDSRADQFANEWGRSGKDPNHFRPAGLPKRY | binds
